{"source": "paper PMC12678811", "key": {"[1]": {"target": "secretin receptor (SCTR) (mouse (endogenous in mouse jejunal ICC-DMP)) (UniProt Q5FWI2)", "sequence (Q5FWI2 29-447)": "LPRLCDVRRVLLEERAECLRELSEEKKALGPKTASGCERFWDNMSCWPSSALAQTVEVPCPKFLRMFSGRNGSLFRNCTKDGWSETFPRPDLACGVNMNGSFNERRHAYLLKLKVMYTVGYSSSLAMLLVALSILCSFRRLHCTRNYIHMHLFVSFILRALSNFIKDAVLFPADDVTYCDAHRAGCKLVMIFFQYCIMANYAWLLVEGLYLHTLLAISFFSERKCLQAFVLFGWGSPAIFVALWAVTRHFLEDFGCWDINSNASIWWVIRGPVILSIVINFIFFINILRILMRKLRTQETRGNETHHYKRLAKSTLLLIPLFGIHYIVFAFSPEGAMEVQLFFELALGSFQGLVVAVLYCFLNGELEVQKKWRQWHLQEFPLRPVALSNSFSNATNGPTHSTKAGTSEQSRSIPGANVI"}, "[2]": {"target": "secretin receptor (SCTR) (mouse (endogenous in mouse jejunal ICC-DMP)) (UniProt Q5FWI2)", "remark": "listed apart in the source"}, "[3]": {"target": "secretin receptor (SCTR) (mouse (endogenous in mouse jejunal ICC-DMP)) (UniProt Q5FWI2)", "remark": "listed apart in the source"}}}
{"binder": "HSDGTFTSELSRLREGARLQRLLQGLV", "note": "[Secretin, human]", "values": [{"measurement": "contractions of murine jejunal muscle strips, amplitude, secretin 100 nM with TTX 1 uM", "setting": "[1]", "value": "53.3 % of control"}, {"measurement": "contractions of murine jejunal muscle strips, area under the curve, secretin 100 nM with TTX 1 uM", "setting": "[1]", "value": "46.4 % of control"}, {"measurement": "spontaneous contractions of murine jejunal muscle strips, area under the curve, secretin 100 nM, control conditions", "setting": "[1]", "value": "45.6 % of control"}, {"measurement": "spontaneous contractions of murine jejunal muscle strips, contractile amplitude, secretin 100 nM, control conditions", "setting": "[1]", "value": "61.3 % of control"}, {"measurement": "Ca2+ transients in ICC-DMP (GCaMP6f), area of events, secretin 100 nM with TTX 1 uM", "setting": "[2]", "value": 0.57, "unit": "μm·s"}, {"measurement": "Ca2+ transients in ICC-DMP (GCaMP6f), spatial spread, secretin 100 nM with TTX 1 uM", "setting": "[2]", "value": 3.1, "unit": "μm"}, {"measurement": "cAMP level in ICC-DMP, FRET ratio (mTurquoise/Venus) of the CAMPER sensor, secretin 100 nM", "setting": "[3]", "value": "108 % of control"}]}
